In PMC2650857:
Like-named read-outs stand apart in the source and are kept apart here.

Tests used:
[1] = molecular target: MOP receptor stably expressed in CHO-K1 cells (plasma membranes) (UniProt P35372); assay: radioligand binding
[2] = molecular target: MOP receptor stably expressed in CHO-K1 cells (plasma membranes) (UniProt P35372); assay: radioligand binding; remark: listed apart in the source

UniProt P35372, sequence (P35372 whole entry): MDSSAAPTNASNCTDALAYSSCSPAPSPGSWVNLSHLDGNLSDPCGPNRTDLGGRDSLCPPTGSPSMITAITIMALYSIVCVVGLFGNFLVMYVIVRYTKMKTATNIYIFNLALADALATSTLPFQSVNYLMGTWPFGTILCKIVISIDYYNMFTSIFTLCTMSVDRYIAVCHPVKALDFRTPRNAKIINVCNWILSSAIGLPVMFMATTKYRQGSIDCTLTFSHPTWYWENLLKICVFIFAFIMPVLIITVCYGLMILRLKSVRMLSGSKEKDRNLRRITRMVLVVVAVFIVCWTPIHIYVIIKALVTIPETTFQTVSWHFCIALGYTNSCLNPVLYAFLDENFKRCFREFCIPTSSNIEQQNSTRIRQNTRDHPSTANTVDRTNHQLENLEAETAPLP

Ki [1]: 6.7 nM
Ki [2]: 11 nM
Substance: DAMGO, [D-Ala^2, NMePHe^4, Gly^5-ol]enkephalin (peptide)
